T1: MsbA (WT), purified, His tag cleaved (Escherichia coli K-12)
T1 chain: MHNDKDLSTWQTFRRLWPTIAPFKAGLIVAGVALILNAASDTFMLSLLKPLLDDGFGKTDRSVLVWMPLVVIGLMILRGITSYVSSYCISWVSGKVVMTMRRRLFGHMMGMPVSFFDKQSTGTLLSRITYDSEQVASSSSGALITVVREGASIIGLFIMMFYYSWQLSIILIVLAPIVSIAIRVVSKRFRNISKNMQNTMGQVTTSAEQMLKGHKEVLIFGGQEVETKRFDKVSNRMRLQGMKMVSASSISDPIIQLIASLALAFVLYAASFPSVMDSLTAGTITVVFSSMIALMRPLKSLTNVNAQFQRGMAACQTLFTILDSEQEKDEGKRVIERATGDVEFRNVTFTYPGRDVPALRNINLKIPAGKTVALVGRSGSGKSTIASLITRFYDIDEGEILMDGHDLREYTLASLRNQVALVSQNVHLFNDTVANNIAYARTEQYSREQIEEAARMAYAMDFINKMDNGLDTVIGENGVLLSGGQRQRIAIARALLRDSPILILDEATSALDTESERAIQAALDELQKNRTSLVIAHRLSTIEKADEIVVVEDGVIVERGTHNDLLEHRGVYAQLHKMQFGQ


Assays:
[1] = biological target: T1, MsbA (WT), purified, His tag cleaved; test: cryo-EM structure
[2] = biological target: MsbA (WT), overexpressed in E. coli membranes and cells (Escherichia coli K-12, UniProt P60752); test: DEER
[3] = biological target: Avi-tagged full-length MsbA, biotinylated, detergent-solubilized (Escherichia coli (K-12 sequence), UniProt P60752, biotin on the Avi-tag (enzymatic, BirA)); test: grating-coupled interferometry

Row | binding result [1] | binding result [2] | binding result [3] | Binder
1 | binds | binds | binds | Nb_MsbA#1_A60C labeled with Gd-DOTA (VHH) VHH: QMQLVESGGGLVQAGGSLRLSCAVSGSIFSIITLAWYRQAPGKPRENVATITRGSRTSYCDSVKGRFTISKDNAKSTVYLQMNKLKPEDTADYYCNAEGPAGYWGQGTPVTVS
2 | binds | binds | binds | Nb_MsbA#1_T68C labeled with Gd-DOTA (VHH) VHH: QMQLVESGGGLVQAGGSLRLSCAVSGSIFSIITLAWYRQAPGKPRENVATITRGSRTSYADSVKGRFCISKDNAKSTVYLQMNKLKPEDTADYYCNAEGPAGYWGQGTPVTVS

— PMC9555771 (Science Advances, 2022)
